Assay results published in US8343490B2, “Monoclonal antibody SC104 and derivative thereof specifically binding to a sialyltetraosyl carbohydrate as a potential anti-tumor therapeutic agent” (Cephalon Australia Pty Ltd, priority 2004, dated 2013).
Like-named read-outs stand apart in the source and are kept apart here.

Tests used:
[1] = tested on: pan caspase in C170 cells; test: Pan caspase activation (FITC-FMK-vad, flow cytometry); type: cell-based; settings: 30 μg/ml, up to 6 hrs; FIG. 17
Method: Pan caspase activation. 2×10^5 colorectal C170 cells were exposed to 30 μg/ml of SC104 for up to 6 hrs and pan caspase FITC-FMK-vad (caspACE FITC-vad-FMK, Promega, catalogue number G7462) employed to establish caspase activation. The cells were analysed by flow cytometry. Controls included a negative control murine antibody and a Fas antibody at 100 ng/ml.

[2] = tested on: CaCO2; test: Inhibition of cell growth, MTS; type: cell-based; settings: 30 μg/ml
Method: (§1) Inhibition of cell growth. 1×10^3 colorectal C170, C168, C146, CaCO2, Colo205, LoVo and HT29 cells were aliquoted into individual wells of a flat bottomed 96-well plate and left to adhere overnight at 37° C. The following day the cells were treated with: 10, 3, 1, 0.3 and 0 μg/ml of SC104 mab. As a negative control 791T/36 at concentrations 100, 30, 10, 3 and 0 μg/ml, was titrated against each concentration of drug used. Triplicate wells were used. Cells were left for 5 days at 37° C. prior to the addition of MTS reagent to each well and optical density reading at 490 nm.

[3] = tested on: C170; test: Inhibition of cell growth, MTS; type: cell-based
Method: as §1

[4] = tested on: HT-29; test: Inhibition of cell growth, MTS; type: cell-based; settings: 30 μg/ml
Method: as §1

[5] = tested on: C168; test: Inhibition of cell growth, MTS; type: cell-based; settings: 30 μg/ml
Method: as §1

[6] = tested on: Colo205; test: Inhibition of cell growth, MTS; type: cell-based
Method: as §1

[7] = tested on: C146; test: Inhibition of cell growth, MTS; type: cell-based; settings: 30 μg/ml
Method: as §1

[8] = Blood group antigen ELISA, H type II; type: binding
Method: (§2) The Lewis ^y hapten and the type I and type II H blood group antigen (Sigma, Poole, Dorset) were dried microtitre plates by overnight incubation at 37° C. Binding of SC104 mab was assayed by ELISA as described above.

[9] = Blood group antigen ELISA, Lewis y; type: binding
Method: as §2

[10] = tested on: C170 cells; test: C170 cell ELISA (hybridoma screening); type: binding
Method: ELISA. Antibody responses in the serum of immunised mice were assayed by titration using a standard non-competitive ELISA procedure. 96-well tissue culture plates were coated with C170 cells at a cell density of 5×10^5 cells/ml (100 μl/well) in 10% foetal bovine serum in RPMI 1640. The plates were incubated overnight at 37° C., 5% CO2, 95% air. The cells were then washed twice in phosphate buffered saline (pH7.3, PBS) prior to being fixed with 0.5% glutaraldehyde in PBS (10 min, 25° C., 100 μl/well). Remaining non-specific binding sites were blocked by incubation for 1 hr with 1% bovine serum albumin (fraction V from Sigma Chemicals Ltd.) in PBS. The cells were washed three times with a washing solution consisting of 0.05% Tween 20 in phosphate buffered saline before assaying post-boost serum for binding to C170 cells using a non-competitive sandwich ELISA. The pre-immunisation serum was used as a negative control. • Immunohistochemistry. Binding of hybridoma supernatants to tumour tissues was determined by indirect immunoperoxidase staining of frozen colorectal tumour sections. […] The bound antibody was detected with rabbit anti-mouse Ig conjugated to peroxidase (Dako Ltd., Bucks., UK) and following extensive washing the slides were stained with 0.05% diaminobenzidine and 0.01% H2O2 in 0.05M Tris-HCl, pH7.6 and counterstained with haematoxylin. […]

[11] = tested on: SC104 / C14 antigen; test: ELISA for homophilic binding; settings: FIG. 23
Method: ELISA for homophilic binding. Flat flexi 96 well ELISA plates were coated with anti-mouse IgG Fc specific antibody or were coated with 3 μg/ml (100 μl/well) of C14 antigen in PBS and dried down overnight. Plates were washed 3 times with PBS prior to blocking with PBS/1% BSA for 1 hr at room temperature. SC104 antibody (0-100 μg/ml) was added on ice for 1 hr. After washing the plate 3 times in PBS/0.05% tween-20, biotinylated SC104 was added and incubated on ice for 30 minutes. Following a further 3 washes in PBS 0.05% tween-20 anti-mouse SA-HRP (1/1000; Dako, High Wycombe, UK) or goat anti-mouse Fc (1/1000: Dako, High Wycombe, UK) was added as appropriate and left on ice for 30 min. Plates were washed 5 times in PBS/0.05% tween-20 before adding 100 μl/well of TMB substrate and reading at 570 nm.

[12] = tested on: C170 xenografts; type: in vivo
Method: Prevention model. The colorectal tumour cell line, C170 was maintained in serial passage in nude mice. For therapy the mice were sacrificed and the tumours excised. The tumour was finely minced and […] pieces were implanted, under anaesthetic, subcutaneously into 30 male mice which had been randomly allocated to 4 experimental groups.
Mice were explanted with 3 mm^3 pieces of C170 xenografts. Groups of mice were treated with 5-FU/leucovorin (12.5 mg/Kg) by intravenous infusion on days 1, 3, 5, 7 and 28. On the same days mice were also injected intraperitonealy with 0.2 mg of SC104 mab. Control mice received either SC104 alone or control mouse IgG antibody with 5-FU/leucovorin. Tumour size was measured by callipers and tumour cross sectional area calculated on days 7, 9, 12, 14 and 16. Animals were weighed to assess the toxicity of treatment. At the termination of the experiment tumours were weighed to assess anti-tumour efficacy.

[13] = concentrations in excess of 10 μg/ml, FIG. 20

B1: SC104: mouse IgG1 monoclonal antibody specific for a sialyltetraosyl carbohydrate, raised by immunisation with colorectal cancer cell lines (antibody, V domains shown)
VH: DVQLQESGPDLVKPSQSLSLTCTVTGYSITSGYSWHWVRQFPGNKMEWMGHIHFSGRPTYNPSLSSRISITRDTSKNQFLLQLKFVTTEDTSTYFCARKGKGSDDGLNYWGQGISVTVSS
VL: ENVLTQSPVIMSASPGEKVTMTCSASSSLSYIHWYQQKSRTSPKLWIYDTSNLASGVPGRFSGSGSGNSYSLTISSMEAEDVATYYCFQGSEYPLTFGGGTKLEMT
In the case of B1, the pan caspase activation [1] is reported as “activates pan caspases after 5 hrs”, the “% inhibition of cell growth as measured by MTS staining” value (“% inhibition of cell growth” below) [2] is reported as 20% and the “% inhibition of cell growth” value ([3]; 30 μg/ml) is reported as 70%. For the same molecule, the “inhibition of growth of adherent cells (MTS)” value [3, 13] was “inhibited growth”, the “% inhibition of cell growth” value [4] was 5% and the “% inhibition of cell growth” value [5] was 55%. For the same molecule, the “% inhibition of cell growth” value ([6]; 30 μg/ml) was 55%, the “inhibition of growth of adherent cells (MTS)” value [6, 13] was “inhibited growth” and the “% inhibition of cell growth” value [7] was 65%. The “Binding to blood group antigens by ELISA: H blood group Type II” value [8] was 0.076 OD 405 nm, the “Binding to blood group antigens by ELISA: Lewis ^y” value [9] was 0.057 OD 405 nm and the “C170 ELISA (OD 405 nm)” value [10] was 0.301 OD 405 nm. For the same molecule, the “binding to plates coated with purified glycoprotein expressing SC104 haptens” value ([11]; C14 antigen coated plates) was “bound stoichiometrically until 10 μg/ml and then bound exponentially beyond this concentration”, the “homophilic binding in the absence of antigen” value ([11]; plate coated with unlabelled SC104, SC104 biotin detected) was “did not bind to itself” and the survival of mice ([12]; Log Rank, FIG. 26b) was “significant improvement of survival”. The “inhibition of tumour growth of freshly explanted tumours” value ([12]; SC104 200 μg/dose ip, 5-FU/leucovorin at maximum tolerated dose, FIG. 26a) was 50%, the “inhibition of tumour growth” value ([12]; day 9) was 32% and the “inhibition of tumour growth” value ([12]; day 12) was 44%. The “inhibition of tumour growth” value ([12]; day 14) was 54% and the “inhibition of tumour growth” value ([12]; day 16) was 62%.
